Measured values reported in PMC10871540 (Science Advances, 2024).

Biological target: T1, UNC-40 ECD (C. elegans, UniProt G5EF96 23-1082)
T1 sequence (looked up): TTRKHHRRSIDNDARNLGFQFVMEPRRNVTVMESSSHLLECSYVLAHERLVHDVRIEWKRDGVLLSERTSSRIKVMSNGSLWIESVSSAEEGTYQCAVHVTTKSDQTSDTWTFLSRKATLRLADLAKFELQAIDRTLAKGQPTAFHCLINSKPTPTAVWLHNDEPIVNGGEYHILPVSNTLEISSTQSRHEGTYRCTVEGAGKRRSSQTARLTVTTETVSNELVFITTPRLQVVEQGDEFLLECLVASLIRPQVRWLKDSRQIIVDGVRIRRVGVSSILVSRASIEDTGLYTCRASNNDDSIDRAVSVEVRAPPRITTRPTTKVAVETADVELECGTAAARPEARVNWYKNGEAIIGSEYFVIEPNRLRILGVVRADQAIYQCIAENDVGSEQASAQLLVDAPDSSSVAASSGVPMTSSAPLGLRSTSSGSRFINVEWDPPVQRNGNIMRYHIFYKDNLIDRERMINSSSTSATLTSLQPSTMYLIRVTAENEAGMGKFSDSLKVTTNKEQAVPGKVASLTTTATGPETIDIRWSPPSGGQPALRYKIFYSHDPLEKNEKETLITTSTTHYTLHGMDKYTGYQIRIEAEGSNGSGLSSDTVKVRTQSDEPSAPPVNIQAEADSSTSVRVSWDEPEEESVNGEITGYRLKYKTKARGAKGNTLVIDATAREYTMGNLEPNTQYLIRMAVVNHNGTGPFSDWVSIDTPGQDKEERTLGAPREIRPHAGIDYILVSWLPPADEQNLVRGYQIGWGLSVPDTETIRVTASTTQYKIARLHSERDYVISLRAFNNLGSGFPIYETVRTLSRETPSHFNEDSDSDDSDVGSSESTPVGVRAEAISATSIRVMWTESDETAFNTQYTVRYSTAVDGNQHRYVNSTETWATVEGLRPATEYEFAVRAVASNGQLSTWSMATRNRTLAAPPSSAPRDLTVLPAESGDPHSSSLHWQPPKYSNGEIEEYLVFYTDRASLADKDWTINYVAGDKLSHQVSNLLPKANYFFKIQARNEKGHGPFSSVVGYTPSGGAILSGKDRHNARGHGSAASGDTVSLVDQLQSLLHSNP
Test: SEC

binding result: binds
B1: UNC-6ΔC (ligand)
chain: not shown
